Experimental findings from patent US20020128189A1 (Harvard, published 2002) are described below.

B1: Full-length human UBCH5 (interactant in the yeast two-hybrid interaction trap) (enzyme, not shown: large carriers)
chain: not shown

Experiment [1] has as its target T1, LexA-E12477-654 (amino acids 477 to 654 of human E12 fused to LexA) (human, UniProt P15923 477-654).
T1 construct: not shown: LexA encoded by the LexA gene of pEG202, N-terminal fusion partner
T1 sequence (looked up): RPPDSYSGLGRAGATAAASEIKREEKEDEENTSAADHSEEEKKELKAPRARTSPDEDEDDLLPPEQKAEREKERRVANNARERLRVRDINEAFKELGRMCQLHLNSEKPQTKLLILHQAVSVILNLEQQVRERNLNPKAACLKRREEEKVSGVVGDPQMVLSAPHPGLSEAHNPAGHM
The experiment in a line: yeast two-hybrid interaction trap.

The target in experiment [2] is B1. The experiment in a line: yeast two-hybrid interaction trap.
Experiment [3] addresses T2, AD-UBCE2A (full-length UBCE2A fused to the B42 transcription activation domain) (rat, UniProt P63279 1-158 (human entry)).
T2 construct: also called AD-UBCE2A library isolate; UBPCE2A
The experiment in a line: yeast two-hybrid interaction trap.

Experiment [4] addresses T2, AD-UBCE2A (full-length UBCE2A fused to …). The experiment in a line: yeast two-hybrid interaction trap, beta-galactosidase. An excerpt: In order to assess the specificity of interaction and to map the interaction domains, cells of the yeast strain EGY48/pSH18-34 were transformed with the indicated bait constructs and library/interactant plasmids, and plated on Ura⁻ His⁻ Trp⁻ glucose plates. The bait constructs used in the specificity test were: LexA-Id3, which contains all of the Id3 coding sequence; LexA-c-Myc, which contains the C-terminal 137 amino acids of mouse c-Myc; LexA-Max, which contains all of the rat Max coding sequences; and LexA-Oct1, which includes amino acids 294-429 of human Oct 1 (containing the POU domain). Eight to twelve colonies from each bait/interactant combination were picked and plated in duplicate on Ura⁻ His⁻ Trp⁻ X-gal plates containing either 2% glucose or 2% galactose, 1% raffinose, and the color was assessed after 48 hours.
The specificity of the interaction partners was further examined by transforming yeast harboring expression plasmids encoding LexA fusions with various known HLH proteins. No interaction was detected with the HLH protein, Id3 (Christy et al., 1991, Proc. Natl. Acad. Sci. USA 88:1815-1819), the bHLH-leucine zipper protein, max (Blackwood et al., 1991, Science 251:1211-1217), or the homeodomain protein, Oct 1 (Sturm et al., 1988, Genes & Dev. 2:1582-1599); only weak promoter activity was discerned following introduction of LexA-myc. […]

Ends that are not written are not given here.

T2 sequence (P63279 whole entry, the tested form may be a part): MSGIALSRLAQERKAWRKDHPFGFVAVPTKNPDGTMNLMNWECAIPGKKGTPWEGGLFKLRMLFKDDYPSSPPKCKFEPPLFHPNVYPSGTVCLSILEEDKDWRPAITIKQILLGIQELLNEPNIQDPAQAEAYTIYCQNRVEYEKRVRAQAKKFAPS

For B1, in experiment [1], the binding result is “no binding”.

B2: LexA-E12477-530 (other, human, UniProt P15923 477-530, looked up)
chain: LexA-RPPDSYSGLGRAGATAAASEIKREEKEDEENTSAADHSEEEKKELKAPRARTSP
notes: not shown: LexA encoded by the LexA gene of pEG202, N-terminal fusion partner
Take B2: the binding result in experiment [2] is listed as “no binding”; in experiment [3], “binds”.

B3: LexA-Oct1 (amino acids 294-429 of human Oct 1, containing the POU domain) (other, UniProt P14859 294-429, looked up)
chain: TFKQRRIKLGFTQGDVGLAMGKLYGNDFSQTTISRFEALNLSFKNMCKLKPLLEKWLNDAENLSSDSSLSSPSALNSPGIEGLSRRRKKRTSIETNIRVALEKSFLENQKPTSEEITMIADQLNMEKEVIRVWFCN
notes: range 294-429; Bait for the specificity test; not shown: LexA encoded by the LexA gene of pEG202, N-terminal fusion partner
Consider B3, for which the binding result in experiment [4] was “no binding”.

B4: LexA-E12539-654 (other, human, UniProt P15923 539-654, looked up)
chain: PPEQKAEREKERRVANNARERLRVRDINEAFKELGRMCQLHLNSEKPQTKLLILHQAVSVILNLEQQVRERNLNPKAACLKRREEEKVSGVVGDPQMVLSAPHPGLSEAHNPAGHM
notes: also called LexA-E12 lacking this region; not shown: LexA encoded by the LexA gene of pEG202, N-terminal fusion partner
For the molecule B4, the binding result in experiment [3] is listed as “no binding”.

B5: LexA-Id3 (all of the Id3 coding sequence) (other, rat, UniProt P41138 1-119, looked up)
chain: MKALSPVRGCYEAVCCLSERSLAIARGRGKSPSAEEPLSLLDDMNHCYSRLRELVPGVPRGTQLSQVEILQRVIDYILDLQVVLAEPAPGPPDGPHLPIQTAELTPELVISKDKRSFCH
notes: Bait for the specificity test; not shown: LexA encoded by the LexA gene of pEG202, N-terminal fusion partner
For the molecule B5, in experiment [4], the binding result is recorded as “no binding”.
